Columns and labels:
Jurkat cells = test: Cell proliferation, Cell Counting Kit-8; format: cell-based, human; conditions: 10 μg expression plasmid; Jurkat cells versus HEL cells and 293 cells
Procedure: 10 μg of a plasmid for the expression of wild-type HDAC4 and the HDAC4 dominant negative variant (H863L) prepared in Example 6 was transfected to Jurkat cells, HEL cells and 293 cells.
1×10^7 Jurkat cells (ATCC, TIB-152) were transformed by the electroporation method (BIO-RAD, Gene Pulser II, voltage 300 V, charge 975 μF, 400 μL). After transformation, 2.5 mL of RPMI 1640 containing 10% FBS (MOREGATE) (10% FBS RPMI 1640) was added, and this mixture was dispensed to a 96-well white plate in a ratio of 50 μL/well. After cultivation under conditions of 37° C., 5% CO2 and saturated humidity for 5 hours, a liquid mixture of Phorbol 12-Myristate 13-Acetate (PMA, SIGMA), Ionomycin (SIGMA) and Anti-CD28 antibody (Pharmingen) in 10% FBS RPMI 1640 was added at 50 μL/well (the final concentrations were 50 ng/mL, 1 μg/mL and 75 ng/mL, respectively) to stimulate the Jurkat cells. After cultivation under conditions of 37° C., 5% CO2 and saturated humidity for 4 hours, the number of cell was confirmed using the Cell Counting Kit-8 (DOJIN) 8.75×10^6 HEL cells (accession number JCRBOO62, JCRB) were transformed by the electroporation method (BIO-RAD, Gene Pulser II, voltage 1750 V, charge 10 μF, 365 μL). After transformation, 2 mL of 10% FBS RPMI 1640 was added, and this mixture was dispensed to a 96-well white plate in a ratio of 50 μL/well. […]

N-CoR(RD3) = biological target: T1, N-CoR(RD3) (Homo sapiens, UniProt O75376); test: Two-hybrid detection system for interaction of HDAC4 and N-CoR; format: cell-based; conditions: Jurkat cells; 22 hours after transfection
T1 construct: expressed in transfected cells; host or cells: Jurkat cells (ATCC, TIB-152)
T1 sequence (O75376 1005-1498): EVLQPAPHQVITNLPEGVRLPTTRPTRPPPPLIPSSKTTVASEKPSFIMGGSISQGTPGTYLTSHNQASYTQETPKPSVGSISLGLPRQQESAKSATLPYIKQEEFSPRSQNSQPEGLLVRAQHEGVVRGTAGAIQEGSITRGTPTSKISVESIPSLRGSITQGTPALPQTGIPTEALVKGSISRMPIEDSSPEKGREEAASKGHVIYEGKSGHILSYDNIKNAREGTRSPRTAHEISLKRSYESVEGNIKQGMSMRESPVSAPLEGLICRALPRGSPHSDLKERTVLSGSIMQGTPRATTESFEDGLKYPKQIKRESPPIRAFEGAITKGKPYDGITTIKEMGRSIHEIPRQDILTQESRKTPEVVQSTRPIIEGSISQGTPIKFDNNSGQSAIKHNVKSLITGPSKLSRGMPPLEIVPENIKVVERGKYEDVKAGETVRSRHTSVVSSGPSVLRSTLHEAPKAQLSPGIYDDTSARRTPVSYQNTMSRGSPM
Procedure: First, from the literature information in Mol. Cell, 2002, Vol. 9, p.45-57, the site corresponding to the RD3 sequence of human N-COR was determined (1005-1498a.a.). The human N-COR CDS base sequence was obtained from GenBank accession number AF044209, and human N-CoR(RD3) cDNA was amplified from human-lung-derived cDNA by the PCR method. The primers used were RD3-Bam-FW (SEQ ID NO:82) and RD3-Not-RV (SEQ ID NO:83) below. For the base sequence of human N-CoR(RD3), see SEQ ID NO:21; for the amino acid sequence encoded by the base sequence of human N-CoR (RD3), see SEQ ID NO:22. […]
Subsequently, 10 μg of pG5-Luc (Promega), 3 μg of BND and 3 μg of pACT, or 10 μg of pG5-Luc, 3 μg of pBND-N-CoR (RD3) and 3 μg of pACT-HDAC4, or 10 μg of pG5-Luc, 3 μg of pBND-N-CoR(RD3) and 3 μg of pACT-HDAC4 (H863L), were mixed respectively, and each mixture was transfected to 1×10^7 Jurkat cells (ATCC, TIB-152) by the electroporation method (BIO-RAD, Gene Pulser II, voltage 300 V, charge 975 μF, 400 μL). Twenty-two hours after transfection, luciferase activity in the cells was measured according to the manual of the Bright-Glo Luciferase Assay System (Promega) using a multi-label counter (1420 MULTILABEL COUNTER ARVO SX, WALLAC).

interaction with N-CoR(RD3), GAL4 transcription activation (luciferase) (N-CoR(RD3)): did not interact with N-CoR(RD3)
B1: HDAC4 dominant negative variant (H863L): HDAC4 variant with H863L mutation, amino acid sequence SEQ ID NO:6, expressed from plasmid (protein, listed as Homo sapiens)
chain: MSSQSHPDGLSGRDQPVELLNPARVNHMPSTVDVATALPLQVAPSAVPMDLRLDHQFSLPVAEPALREQQLQQELLALKQKQQIQRQILIAEFQRQHEQLSRQHEAQLHEHIKQQQEMLAMKHQQELLEHQRKLERHRQEQELEKQHREQKLQQLKNKEKGKESAVASTEVKMKLQEFVLNKKKALAHRNLNHCISSDPRYWYGKTQHSSLDQSSPPQSGVSTSYNHPVLGMYDAKDDFPLRKTASEPNLKLRSRLKQKVAERRSSPLLRRKDGPVVTALKKRPLDVTDSACSSAPGSGPSSPNNSSGSVSAENGIAPAVPSIPAETSLAHRLVAREGSAAPLPLYTSPSLPNITLGLPATGPSAGTAGQQDTERLTLPALQQRLSLFPGTHLTPYLSTSPLERDGGAAHSPLLQHMVLLEQPPAQAPLVTGLGALPLHAQSLVGADRVSPSIHKLRQHRPLGRTQSAPLPQNAQALQHLVIQQQHQQFLEKHKQQFQQQQLQMNKIIPKPSEPARQPESHPEETEEELREHQALLDEPYLDRLPGQKEAHAQAGVQVKQEPIESDEEEAEPPREVEPGQRQPSEQELLFRQQALLLEQQRIHQLRNYQASMEAAGIPVSFGGHRPLSRAQSSPASATFPVSVQEPPTKPRFTTGLVYDTLMLKHQCTCGSSSSHPEHAGRIQSIWSRLQETGLRGKCECIRGRKATLEELQTVHSEAHTLLYGTNPLNRQKLDSKKLLGSLASVFVRLPCGGVGVDSDTIWNEVHSAGAARLAVGCVVELVFKVATGELKNGFAVVRPPGHHAEESTPMGFCYFNSVAVAAKLLQQRLSVSKILIVDWDVHHGNGTQQAFYSDPSVLYMSLLRYDDGNFFPGSGAPDEVGTGPGVGFNVNMAFTGGLDPPMGDAEYLAAFRTVVMPIASEFAPDVVLVSSGFDAVEGHPTPLGGYNLSARCFGYLTKQLMGLAGGRIVLALEGGHDLTAICDASEACVSALLGNELDPLPEKVLQQRPNANAVRSMEKVMEIHSKYWRCLQRTTSTAGRSLIEAQTCENEEAETVTAMASLSVGVKPAEKRPDEEPMEEEPPL
modifications: Dominant negative mutant (H863L) of human histone deacetylase-4 (HDAC4) gene
cell proliferation (number of cells) (Jurkat cells): cell proliferation inhibition specific for Jurkat cells
